{
  "source": "the nanobody polyreactivity screen of Harvey et al. (2022)",
  "data": [
    {"assay": "yeast display, Sf9 membrane polyspecificity reagent, FACS + sequencing; frameworks hold sequencing errors", "in_short": "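Using colony PCR, genes from sorted yeast display clones were amplified, then sequenced on MiSeq at 2 × 250 and filtered by CDR length. The clones had been stained with 10% biotinylated, detergent-solubilized Sf9 membrane reagent for 1 hour at 4 °C and sorted by FACS into low and high (top ~1%) gates on anti-HA and streptavidin fluorescence. Polyreactivity labels come from the gate of origin.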", "values": [
      {"sequence": "QVQLVESGGGLVQAGGSLRLSCAASGITFGVNTMGWYRQAPGKERELVAAITWRGGSTYYADSVKGRFTISRDNAKNTVYLQMNSLKPEDTAVYYCAAQPIWPGGQELDYWGQGTQVTVSS", "polyreactivity (PSR sort gate)": "low polyreactivity"},
      {"sequence": "QVQLVESGGGLVQAGGSLRLSCAASGITFGYYAMGWYRQAPGKERELVASISWSGDSTYYADSVKGRFTISRDNAKNTVYLQMNSLKPEDTAVYYCNRGSSWEYGAEYNYWGQGTQVTVSS", "polyreactivity (PSR sort gate)": "low polyreactivity"},
      {"sequence": "QVQLVESGGGLVQAGGSLRLSCAASGITFGYYDMGWYRQAPGKERELVAAISRGGGRTYYADSVKGRFTISRDNAKNTVYLQMNSLKPEDSAVYYCAAPSRYGGRGRPTLYDYWGQGTQVTVSS", "polyreactivity (PSR sort gate)": "high polyreactivity"},
      {"sequence": "QVQLVESGGGLVQAGGSLRLSCAASGITFHGYAMGWDRQAPGKERELVAAISDSGSSTYYADSVKGRFTISRDNAKNTVYLQMNSLKPEHTAVYYCAAVSGFYDQYDYWGQGTQVTVSS", "polyreactivity (PSR sort gate)": "low polyreactivity"},
      {"sequence": "QVQLVESGGGLVQAGGSLRLSCAASGITFHRYDMVWYRQAPGKERELVADITWSGGSTYYADSVKVRFTISRDNAKNTVYLQMNSLKPEDTAVYYCAADASTYTYTPYDYWGQGTQVTVSS", "polyreactivity (PSR sort gate)": "low polyreactivity"},
      {"sequence": "QVQLVESGGGLVQAGGSLRLSCAASGITFIGYVMGWYRQAPGKERELVAAISRSGASTYYADSVKGRFTISRDNAKNTVYLQMNSLKPEDTAVYYCATVRYHPAYYYWGQGTQVTVSS", "polyreactivity (PSR sort gate)": "high polyreactivity"},
      {"sequence": "QVQLVESGGGLVQAGGSLRLSCAASGITFINYDMGWYRQAPGKERELVAAISQIGTSTYYADSVKGRFTISRDNAKNTVYLQMNSLKPEDTAVYYCNARYISTGFRYNYWGQGTQVTVSS", "polyreactivity (PSR sort gate)": "high polyreactivity"},
      {"sequence": "QVQLVESGGGLVQAGGSLRLSCAASGITFIRYAMGWYRQAPGKERELVAVITRSGGRTYYADSVKGRFTISRDNAKNTVYLQMNSLKPEDTAVYYCAARAYGYDEYEYWGQGTQVTVSS", "polyreactivity (PSR sort gate)": "high polyreactivity"},
      {"sequence": "QVQLVESGGGLVQAGGSLRLSCAASGITFITYAMGWYRQAPGKERELVAAISIRGGSTYYADSVKGRFTISRDNAKNTVYLQMNSLKPEDTAVYYCAKDNRSYTYDYWGQGTQVTVSS", "polyreactivity (PSR sort gate)": "low polyreactivity"},
      {"sequence": "QVQLVESGGGLVQAGGSLRLSCAASGITFITYVMGWYRQAPGKERELVAAISLRGGRTSYADSVKGRFTISRDNAKNTVYLQMNSLKPEDTAVYYCAARAYYTRYDFWGQGTQVTVSS", "polyreactivity (PSR sort gate)": "high polyreactivity"},
      {"sequence": "QVQLVESGGGLVQAGGSLRLSCAASGITFKRNAMGWYRQAPGKERELVAAISTTGGRTYYADSVKGRFTISRDNAKNTVYLQMNSLKPEDTAVYYCAARGGPVTYDYWGQGTQVTVSS", "polyreactivity (PSR sort gate)": "high polyreactivity"},
      {"sequence": "QVQLVESGGGLVQAGGSLRLSCAASGITFKTYDMGRYRQAPGKERELVATINRGSRTNYADSVKGRFTISRDNAKNTVYLQMNSLKPEDTAVYYCSAHDTTFIPSPDGDYLGQGTQVTVSS", "polyreactivity (PSR sort gate)": "low polyreactivity"},
      {"sequence": "QVQLVESGGGLVQAGGSLRLSCAASGITFKYNAMAWYRQAPGKEMELVAAISSGGNTYYADSVKGRFTISRDNAKNTVYLQMNSLKPEDTAVYYCAAPSYDTLWHDYWGQGTQVTVSS", "polyreactivity (PSR sort gate)": "low polyreactivity"},
      {"sequence": "QVQLVESGGGLVQAGGSLRLSCAASGITFKYYAMGWYRQAPGKERELVAAITSGTRTNYADSVKGRFTISRDNAKNTVYLQMNSLKPEDTAVYYCAKVGSWYTSHRFGYWGHGTQVTVSS", "polyreactivity (PSR sort gate)": "high polyreactivity"},
      {"sequence": "QVQLVESGGGLVQAGGSLRLSCAASGITFLDNDMGWYRQAPVKERELVAAITSGVSTYYADSVKGRFTISRDNAKNTVYLQMNSLKPEDTAVYYCAADRPDVAGDYGGQGTQVTVSS", "polyreactivity (PSR sort gate)": "low polyreactivity"},
      {"sequence": "QVQLVESGGGLVQAGGSLRLSCAASGITFLDNVMGWYRQAPGKERELVADINSIGTSTSYADSVKGRFTISRDNAKNTVYLQMNSLKPEDTAVYYCAADTGLEDYDYWGQGTQVTVSS", "polyreactivity (PSR sort gate)": "low polyreactivity"},
      {"sequence": "QVQLVESGGGLVQAGGSLRLSCAASGITFLNYAMGWYRQAPGKERELVAAISWSGGRTYYADSVKGRFTISRDNGKNTVYLQMNSLKPEDTAVYYCAADRGVNSYGYWGQGTQVTVSS", "polyreactivity (PSR sort gate)": "high polyreactivity"},
      {"sequence": "QVQLVESGGGLVQAGGSLRLSCAASGITFLNYAMGWYRQAPGKERELVAAISWSRGRTYYADSVKGRFTISRDNAKNTGYLQMNSLKPEDTAVYDCAADRGVNSYGYWGQGTQVTVSS", "polyreactivity (PSR sort gate)": "high polyreactivity"},
      {"sequence": "QVQLVESGGGLVQAGGSLRLSCAASGITFLSNAMGWYRQAPGKERELVAAISRGGGTTYYADSVKGRFTISRDNAKNTVYLQMNSLKPEDTAVYYCATESTHTRRSWYEYWGQGTQVTVSS", "polyreactivity (PSR sort gate)": "high polyreactivity"},
      {"sequence": "QVQLVESGGGLVQAGGSLRLSCAASGITFLVYVMGWYRQAPGKERELVAAISSGGSTYYADSVKGRFTISRDNAKNTVYVQMNSLKPEDTAVYYCAAERKLYGLYDYWGQGTQVTVSS", "polyreactivity (PSR sort gate)": "low polyreactivity"},
      {"sequence": "QVQLVESGGGLVQAGGSLRLSCAASGITFNDYTMGWYRQGPGKERELVAVNTKTGSRTYYADSVKGRFTISRDNAKNTVYLQMNSLKPEDTAVYYCNALYYIHYYQGYGYWGQGTQVTVSS", "polyreactivity (PSR sort gate)": "high polyreactivity"},
      {"sequence": "QVQLVESGGGLVQAGGSLRLSCAASGITFNQYVMGWYRQAPGKESELVAAISRSGATTYYADSVKGRFTISRDNAKNTVYLQMNSLKPEDTAVYYCAVRGSVSYTRYGYWGQGTQVTVSS", "polyreactivity (PSR sort gate)": "high polyreactivity"},
      {"sequence": "QVQLVESGGGLVQAGGSLRLSCAASGITFNRNAMGWYRQAPGKERELVAAISSDGNTNYADSVKGRFTISRDNAKNTVYLQMNSLKPEDTAVYYCAAPVIQITDVWYDAETYPDYDYWGQGTQVTVSS", "polyreactivity (PSR sort gate)": "low polyreactivity"},
      {"sequence": "QVQLVESGGGLVQAGGSLRLSCAASGITFNSYAKGWYRQAPGKERELVASISWIGGSTYYADSVKLRFTISRDNAKNTVYLQMNSLKPEDTAVYYCAVDKGTDYYYEVDYWGQGTQVTVSS", "polyreactivity (PSR sort gate)": "low polyreactivity"},
      {"sequence": "QVQLVESGGGLVQAGGSLRLSCAASGITFNVYAMGWYRQAPGKERELVAAISYNGGRTYYADSVKGRFTISRDNAKNTVYLPMNSLKPEDTAVYYCAAQWPWGPYDYWGQGTQVTVSS", "polyreactivity (PSR sort gate)": "high polyreactivity"},
      {"sequence": "QVQLVESGGGLVQAGGSLRLSCAASGITFNYYAMGWYRQAPGKERELVATINRSGGTTYYADSVKGRITISRDNAKNTVYLQMNSLKPEDTAVYYCNARYTSRGRYHSGYDYWGQGTQVTVSS", "polyreactivity (PSR sort gate)": "high polyreactivity"},
      {"sequence": "QVQLVESGGGLVQAGGSLRLSCAASGITFPANARGWYRPAPGKERELVAAISSSGDSTYYADSVKGRFTISRDNAKNTVYFQMNILKPEDTAVYYCAAKDYVWGQGTQVTVSS", "polyreactivity (PSR sort gate)": "low polyreactivity"},
      {"sequence": "QVQLVESGGGLVQAGGSLRLSCAASGITFPAYAMGWYRQAPGKERELVAAISRRGGSTYYADSVKGRFTISRDYAKNTVYLQMNSLKPEDTAVYYCNADIKQRSDRYDYWGQGTQVTVSS", "polyreactivity (PSR sort gate)": "high polyreactivity"},
      {"sequence": "QVQLVESGGGLVQAGGSLRLSCAASGITFPDYAMGWYRQAPGKERELVATISSSGGNTYYADSVKGRFTISRDNAKNTVYLQMNSLKPEDTAVYYCATVSYYWGYDYWGQGTQVTVSS", "polyreactivity (PSR sort gate)": "low polyreactivity"},
      {"sequence": "QVQLVESGGGLVQAGGSLRLSCAASGITFPDYDMGWYRQAPGKERELVAAITYRSGSTYYADSVKGRFTISRDNAKNTVYLQMNSLKPEDTAVYYCNKYGQVPGYFSLDYWGQGTQVTVSS", "polyreactivity (PSR sort gate)": "high polyreactivity"},
      {"sequence": "QVQLVESGGGLVQAGGSLRLSCAASGITFPGNAMGWYRQAPGKERELVAGISDGDSTNYADSVKARFTISRDNAKNTVYLQMNSLKPEDTAVYYCARDTELYVRWLDYWGQGTQVTVSS", "polyreactivity (PSR sort gate)": "low polyreactivity"},
      {"sequence": "QVQLVESGGGLVQAGGSLRLSCAASGITFPGNAMGWYRQAPGKERELVAVISSGTSTNYADSVKGRFTISRDNAKYTVYLQMNSLKPEDTAVYYCATSLYYYPYYYWGQGTQVTVSS", "polyreactivity (PSR sort gate)": "low polyreactivity"},
      {"sequence": "QVQLVESGGGLVQAGGSLRLSCAASGITFPGYAMGWYRQAPGKEWELVAAISTSGGSTYYADSVKGRFTISRDNAKNTVYLQMNSLKPEATAVYYCNARLVSYSYEEMDYWGQGTQVTVSS", "polyreactivity (PSR sort gate)": "low polyreactivity"},
      {"sequence": "QVQLVESGGGLVQAGGSLRLSCAASGITFPGYARGWYRQAPGKASELVAAIDWSGDGTYYADSVKGRFTISRDNAKNTVYLQMNSLKPEDTAVYYCAKDNYPNHCTVRAVIYDYWGQGTQVTVSS", "polyreactivity (PSR sort gate)": "low polyreactivity"},
      {"sequence": "QVQLVESGGGLVQAGGSLRLSCAASGITFPRYAMGWYRQAPGKERELVARITSGGRTNYADSVKGRFTISRDNAKNTVYLQMYSLKPEDTAVYYCNAVGWVRSQVRLGYWGQGTQVTVSS", "polyreactivity (PSR sort gate)": "high polyreactivity"},
      {"sequence": "QVQLVESGGGLVQAGGSLRLSCAASGITFPRYVMGWYRQAPGKEREFVAAINYSGGRTYYADSVKGRFTISRDNAKNTVYLQMKSLKPEDTAVYYCAVDLHVWPFWFDYWGQGTQVTVSS", "polyreactivity (PSR sort gate)": "high polyreactivity"},
      {"sequence": "QVQLVESGGGLVQAGGSLRLSCAASGITFPSYTMGWYRQAPGKERELVATIRNGGSTYYADSVKGRFTISRDNAKNTVYLHMNSLKPEDTAVYYCAAVPLWDYKVFYYLLYDYWGQGTQVTVSS", "polyreactivity (PSR sort gate)": "low polyreactivity"},
      {"sequence": "QVQLVESGGGLVQAGGSLRLSCAASGITFPSYTMGWYRQAPGKERELVATIRNGGSTYYADSVKGRFTISRDNAKNTVYLQMNSLKPEDPAVYYCAAVPLWDYKFFYYLLYDYWGQGTQVTVSS", "polyreactivity (PSR sort gate)": "low polyreactivity"},
      {"sequence": "QVQLVESGGGLVQAGGSLRLSCAASGITFPSYVMGWYRQAPGKEREFVAAITGSAGSTYYADSVKGRFTISRDNAKNTVYLQMNSLKPADTAVYYCAARVRYVNPKYYYWGQGTQVTVSS", "polyreactivity (PSR sort gate)": "high polyreactivity"},
      {"sequence": "QVQLVESGGGLVQAGGSLRLSCAASGITFQHYSMGWYRQAPGKERELVAAISSSGGRTYYADSVKGRFTISRDNAKNTVYLQMNSLKPEDTAVYYCNGVDRYNRFDSWGQGTQVTVSS", "polyreactivity (PSR sort gate)": "high polyreactivity"},
      {"sequence": "QVQLVESGGGLVQAGGSLRLSCAASGITFQKNAMGWYSQAPGKERELVAGITWRGSTYYADSVKGRFTISRDNAKNTVYLQRNSLKPEDTAVYYCAADPFSWYRSVRGEYWGQGTQVTVSS", "polyreactivity (PSR sort gate)": "low polyreactivity"}
    ]}
  ]
}
